Assay: yeast display, Sf9 membrane polyspecificity reagent, FACS + sequencing; frameworks hold sequencing errors
Outline: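 Galactose-induced (36–48 hours) yeast carrying a synthetic nanobody display library were exposed to 10% biotinylated, detergent-solubilized Sf9 membrane reagent at 4 °C for 1 hour. FACS followed streptavidin microbead enrichment, using low and high (top ~1%) gates for expression (anti-HA) and reagent binding (streptavidin). Colony PCR, MiSeq 2 × 250 sequencing and CDR-length filtering followed. Labels for polyreactivity reflect the gate of origin.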

Sequence	polyreactivity (PSR sort gate)
QVQLVESGGGLVQAGGSLRLSCAASGRTFPYYAMGGYRKAPGKERELLASISRGGNTNYADSVKGRFTISRDNAKNTVYLQMNSLKPEATAVYYCAADYYLAYGSRRGGYWGQGTQVTVSS	high polyreactivity
QVQLVESGGGLVQAGGSLRLSCAASGRTFPYYAMGWYRQAPGKERELVAAISSSGGRTYYADSVKGRFTISRDNAKNTVYLQMNSLKREDTAVYYCNVDAWYPYQGFLVGYYYWGQGTQVTVSS	low polyreactivity
QVQLVESGGGLVQAGGSLRLSCAASGRTFPYYAMGWYRQAPGKERELVAAISSSGGRTYYADSVKGRFTISRDNAKNTVYLQMNSQKPEDTAVYYCAAQTPGVYLRQIGGYYYWGQGTQVTVSS	low polyreactivity
QVQLVESGGGLVQAGGSLRLSCAASGRTFPYYAMGWYRQAPGKERELVAAITWSGGTTYYADSVKGRFTISRDNAKNTVYLQMNSLKPEDTAVYYCAADFYGPDGYDYWGQGTQVTVSS	low polyreactivity
QVQLVESGGGLVQAGGSLRLSCAASGRTFPYYTMGWYIQAPGKERELVAAIDGSGDNTYYADSVKGRFTISRDYAKNTVYLQLNSLKPEDNAVYYCTAEQWWSLDYWGQGTQVTVSS	low polyreactivity
QVQLVESGGGLVQAGGSLRLSCAASGRTFPYYTMGWYRQAPGKERELVAAISRSGGSTYYADSVKGRFTISRDNAKNTVYLQMNSLKPEDTAVYYCAAGIYRYNRYWGYNYWGQGTQVTVSS	high polyreactivity
QVQLVESGGGLVQAGGSLRLSCAASGRTFQFYAMGWYRQAPGKEREWVAAISRSSGSTTYADSVKGRFTISRDNAKNTVYLQMNSLKPEDTAVFYCDADARYRSYSLLVRPARYYYWGQGTQVTVAS	high polyreactivity
QVQLVESGGGLVQAGGSLRLSCAASGRTFQGYAMGWYRQAPGKERELVAAISRSGGRTYYADSVKGRFTISRDNAKNTVYLQMNSLKPEDTAVYYCAARRRWSQTPFDYWGQGTQVTVSS	high polyreactivity
QVQLVESGGGLVQAGGSLRLSCAASGRTFQKNTMGWYRQAPGKERELVAAIDYSATTTYYADSVKGRFTISRDNAKNTVYLQMNSLKTEDTAVYYCAARWSYPRWEFDYWGQGTQVTVSS	high polyreactivity
QVQLVESGGGLVQAGGSLRLSCAASGRTFQLYAMGWYRQAPGKQRELVAAIRTGGSTNYADSVKGRFTISRDNAKNTVYLQMNSLKPEDTAVYYCAAVQRTDRSAHYSWGQGTQVTVSS	low polyreactivity
QVQLVESGGGLVQAGGSLRLSCAASGRTFQPYAMGWYRQAPGKERELVAAITSIGGSTFYADSVKGRFTISRDNAKNTVYLQMNSLKPEDTAVYYCNARRYWLRYDYWGQGTQVTVSS	low polyreactivity
QVQLVESGGGLVQAGGSLRLSCAASGRTFQPYAMGWYRQAPRKERELVASISRSGGRTYYADSVKGRFTISRDNAKNTVYLQMNSLKPEDTAVYYCADDIPYTRSIKYYYWGQGTQVTVSS	high polyreactivity
QVQLVESGGGLVQAGGSLRLSCAASGRTFQRNAMGWYIQAPGKERELVATITTNGGSTYYADSVKGRFTISRDNAKNTVYLQMNSLKPEDTAVYYCAAPFNPRVRTLRSVRMDYWGQGTQVTVSS	low polyreactivity
QVQLVESGGGLVQAGGSLRLSCAASGRTFQRYAMGWYRQAPGKERELVAAITSSGGTTYYADSVKGRFTISRDNAKNTVYLQMYSMKPEDTAVYYCAARRITSRYDYWGQGTQVTVSS	high polyreactivity
QVQLVESGGGLVQAGGSLRLSCAASGRTFQSNGMGWYRQAPGKERELVAAITWSSGTTYYADSVKGRFTISRDNAKNTVYLQMNSLKPEDTAVYYCAADWGHWNSLYYSGFGYWGQGTQVTVSS	low polyreactivity
QVQLVESGGGLVQAGGSLRLSCAASGRTFQSYAMGRYRQGPGKEREFVAVISRSGGDTYYADSVKGRFTISRDNAKNTVYLLMNSLKPEDTAVYYCARGYTWFYADCPEYDYWGQGTQVTVSS	high polyreactivity
QVQLVESGGGLVQAGGSLRLSCAASGRTFQSYAMGWYRQAPGKERELVAAITITGGRTYYADSVKGRFTISRDNAKNTVYLQMNSLKPEDTAVYYCADYDYWGQGTQVTVSS	low polyreactivity
QVQLVESGGGLVQAGGSLRLSCAASGRTFQTNAMGWYRQAPGKVRELVAAISSTGGSTYYADSVKGRFTISRDNAKYTVYLQMNSLKPEDTAVYYCNAGRTYRYDYWGQGTQVTVSS	high polyreactivity
QVQLVESGGGLVQAGGSLRLSCAASGRTFQTYAMGWYRQAPGKERELVASINWSDGSTYYADSVKGRFTISRDNAKNTVYLQMNSLKPEDTAVYYCAADSSAWLYDYWGQGTQVTVSS	low polyreactivity
QVQLVESGGGLVQAGGSLRLSCAASGRTFQTYARGWYRQAPGKERELVAAISKSGGGTYYADSVKGRFTISRDNAKNTVYLQMNSLKPEDTAVYYCATAGYHYRAWGGRYDYWGQGTQVTVSS	high polyreactivity
QVQLVESGGGLVQAGGSLRLSCAASGRTFQVYAMGWYTQAPGKERELVADITGRGGITYYADSVKGRFTISRDNAKNTVYLQMNSLKPEDTAVYYCAAERYNYKTIYRYDYWGQGTQVTVSS	high polyreactivity

Sequence	polyreactivity (PSR sort gate)
QVQLVESGGGLVQAGGSLRLSCAASGRTFQYNAMGWYRQAPGKERELVAAISSSGGSTYYADSVKGRFTISRDNAKNTVYLQMNSLKPEDTAVYYCNAYSQSWNFYGDGDYWGQGSQVTVSS	low polyreactivity
QVQLVESGGGLVQAGGSLRLSCAASGRTFQYYAMGWYIQGPGKERELVAAISWSGGSTYYADSVKGRFTISRDNAKNTVYLQMNSLKPEDTAVYFCAAVVGRNRTRSYGYWGQGTQVTVSS	high polyreactivity
QVQLVESGGGLVQAGGSLRLSCAASGRTFQYYAMGWYRQAPGKERELVAAINQGGGRTYYADSVKGRFTISRDTAKNTVYLQMNSLKPEDTAVYYCAADGLSKFDYWGQGTQVTVSS	low polyreactivity
QVQLVESGGGLVQAGGSLRLSCAASGRTFQYYAMGWYRQAPGKERELVAAITSGGSTYYADSVTGRFTISRDNAKYTVYLQLNSLKPEDTAVYYCDATFYYSGHDDYWGQGTLVTVSS	low polyreactivity
QVQLVESGGGLVQAGGSLRLSCAASGRTFQYYAMGWYRQAPGQERELVAAITSGGSTYYADSVKGRFTISRDNAKNTVYLQMNSLKPEDTAVYYCAATFYYSGHYDYWGQGTQVTVSS	low polyreactivity
QVQLVESGGGLVQAGGSLRLSCAASGRTFRANAMEWYRQAPGKEREFVAVISLSGGGTYADSVKGRFTISRDNAKNTVYLQMNSLKPEDTAVYYCNRVPRRREYFHSNYLALFDYWGQGTQVTVSW	low polyreactivity
QVQLVESGGGLVQAGGSLRLSCAASGRTFRANAMGWYRQAPGKERELVAAITSTGDRTYYADSVKGRFTISRDNAKNTVYLQMNSLKPEDTAVYYCAAENNRYGGYRKYDYWGQGTQVTVSS	low polyreactivity
QVQLVESGGGLVQAGGSLRLSCAASGRTFRAYAMGWYRQAPGKERELVAAISYDGTRTYYADSVKGRFTISRDNAKNTVYLQMNSLKPEDTAVYYCNAVWVRGFYRVYDYWGQGTQVTVSS	high polyreactivity
QVQLVESGGGLVQAGGSLRLSCAASGRTFRCYAMGWDRQAPGKERELVAAITYSVGSTYYADSVKGRLTISRDTAKNTVYLQMNSLKPEDTAVYYCAADSYPYRYRGKYSRLDYCGQGTQVTVSS	low polyreactivity
QVQLVESGGGLVQAGGSLRLSCAASGRTFRFNAMGWYRQAPGKEREFVAAITSGGGTYYADSVKGRFTISRDNGKNTVYLQMNSLKPEDTAVYYCATVGKVHHRLVAMDYWGQGTQVTVSS	low polyreactivity
QVQLVESGGGLVQAGGSLRLSCAASGRTFRFNAMGWYRQAPGKERELVAAISSRGGNTYYADSVKGRFTISRDNAKNTVYLQMNSLKPVDTSVYYCNKDLNYWGYAKYYGYYYWGQGTQVTVSS	high polyreactivity
QVQLVESGGGLVQAGGSLRLSCAASGRTFRFYAMGWYRQAPGKERELVAAIRWSGGSTYYADSVKGRFTISRDNAKNTVYLQMNSLKPEDTAVYYCNADNRWPFGGWYGLDYWGQGTQVTVSS	high polyreactivity
QVQLVESGGGLVQAGGSLRLSCAASGRTFRGNAMGWYRQAPGKERELVAAIRYRGGSTYYADSVKGRFTISRDNAKNTVYLQMNSLKPEDTAVYYCARRYTVHTQHYDYWGQGTQVTVSS	high polyreactivity
QVQLVESGGGLVQAGGSLRLSCAASGRTFRGNAMGWYRQAPGKERELVAAISRSGGRTYYADSVKGRFTISRDNAKNTVYLQMNSLKPEDTAVYYCNARSYRRWGYYKQAPNGDYWGQGTQVTVSS	high polyreactivity
QVQLVESGGGLVQAGGSLRLSCAASGRTFRGNAMGWYRQAPGKERELVATINSGASTNYADSVKGRFTISRDNAKNPVYLQMNSLNPEDTAVYYCAAVKYFRWKYNYWGQGTQVTVSS	high polyreactivity
QVQLVESGGGLVQAGGSLRLSCAASGRTFRGNDMGWYRQAPGKEWELVATITRNGGSTRYADSVKGRFTISRDNAKNTVYLQMNSLKPEDTAVYYCNARSRYFGYDYWGQGTQVTVSS	high polyreactivity
QVQLVESGGGLVQAGGSLRLSCAASGRTFRGYAMGWYRPAPGKERELVAVISRGGRTNYADSVKGRFTISRDNAKNTVYLQMNSLKPEDTAVSYCAAEVAFIYSLRYDYWGQGTQVTVSS	high polyreactivity
QVQLVESGGGLVQAGGSLRLSCAASGRTFRGYAMGWYRQAPGKERELGAAITSSGGRTYYADSVKGRFTISRDNAKNTVYLQMNSLKPVDTAVYYCAKDYYSPRGYDYWGQGTQVTVSS	high polyreactivity
QVQLVESGGGLVQAGGSLRLSCAASGRTFRGYAMGWYRQAPGKERELVAGIRRGGSTNYADSVKGRFTISRDNSKNTVSLQMNSLKPEDTAVYYCAKTYTVSQPSLRTYYYWGQGTQVTVSS	high polyreactivity
QVQLVESGGGLVQAGGSLRLSCAASGRTFRINAMGWYRQAPGKERELVAAISFRTDSTYYADSVKGRFTISRDNAKNTVYLQMNSLKPEDTAVYYCDARGLQVRTYDYWGQGTQVTVSS	high polyreactivity

Reference: the nanobody polyreactivity screen of Harvey et al. (2022)
